Data reported in patent US20210253718A1 (MODMAB THERAPEUTICS, published 2021).

T1: FZD3 cysteine-rich domain (CRD), MYC-tagged and GPI-anchored on CHO cells (human, UniProt Q9NPG1 24-150, GPI anchor)
T1 construct: domain: cysteine-rich domain (CRD); also called FZD3 CRD; CHO-myc-FZDGPI; not shown: MYC tag and GPI anchor signal
T1 sequence (looked up): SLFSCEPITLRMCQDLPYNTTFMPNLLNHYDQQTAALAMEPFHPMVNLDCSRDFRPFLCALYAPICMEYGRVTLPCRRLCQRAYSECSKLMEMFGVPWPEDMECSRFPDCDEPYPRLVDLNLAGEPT

T2: FZD4 cysteine-rich domain (CRD), MYC-tagged and GPI-anchored on CHO cells (human, UniProt Q9ULV1 42-167, GPI anchor)
T2 construct: also called FZD4 CRD; CHO-myc-FZDGPI; not shown: MYC tag and GPI anchor signal
T2 sequence: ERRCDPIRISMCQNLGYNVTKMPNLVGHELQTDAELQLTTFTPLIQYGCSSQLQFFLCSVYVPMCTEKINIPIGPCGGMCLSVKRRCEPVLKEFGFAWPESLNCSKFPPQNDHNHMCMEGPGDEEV

T3: FZD9 cysteine-rich domain (CRD), MYC-tagged and GPI-anchored on CHO cells (human, UniProt O00144 35-161, GPI anchor)
T3 construct: also called FZD9 CRD; CHO-myc-FZDGPI; not shown: MYC tag and GPI anchor signal
T3 sequence: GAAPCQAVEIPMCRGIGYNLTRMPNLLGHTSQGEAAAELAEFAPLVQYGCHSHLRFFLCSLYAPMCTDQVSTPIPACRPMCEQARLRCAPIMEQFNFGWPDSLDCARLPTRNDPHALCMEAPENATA

T4: FZD6 cysteine-rich domain (CRD), MYC-tagged and GPI-anchored on CHO cells (human, UniProt O60353 20-146, GPI anchor)
T4 construct: also called FZD6 CRD; CHO-myc-FZDGPI; not shown: MYC tag and GPI anchor signal
T4 sequence: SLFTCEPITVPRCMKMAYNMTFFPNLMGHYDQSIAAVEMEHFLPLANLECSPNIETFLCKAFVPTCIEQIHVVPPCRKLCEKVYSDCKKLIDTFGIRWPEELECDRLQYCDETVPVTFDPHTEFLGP

T5: FZD10 cysteine-rich domain (CRD), MYC-tagged and GPI-anchored on CHO cells (human, UniProt Q9ULW2 30-156, GPI anchor)
T5 construct: also called FZD10 CRD; CHO-myc-FZDGPI; not shown: MYC tag and GPI anchor signal
T5 sequence: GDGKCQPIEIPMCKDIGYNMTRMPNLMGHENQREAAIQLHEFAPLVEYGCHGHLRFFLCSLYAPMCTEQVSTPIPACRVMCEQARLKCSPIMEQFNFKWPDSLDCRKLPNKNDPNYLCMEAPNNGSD

T6: FZD5 cysteine-rich domain (CRD), MYC-tagged and GPI-anchored on CHO cells (human, UniProt Q13467 29-156, GPI anchor)
T6 construct: also called FZD5 CRD; CHO-myc-FZDGPI; not shown: MYC tag and GPI anchor signal
T6 sequence: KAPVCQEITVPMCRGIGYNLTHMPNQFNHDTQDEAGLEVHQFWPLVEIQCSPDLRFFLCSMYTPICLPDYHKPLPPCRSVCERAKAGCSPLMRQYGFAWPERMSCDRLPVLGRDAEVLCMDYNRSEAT

T7: FZD8 cysteine-rich domain (CRD), MYC-tagged and GPI-anchored on CHO cells (human, UniProt Q498S8 31-155 (rat entry), GPI anchor)
T7 construct: also called FZD8 CRD; CHO-myc-FZDGPI; not shown: MYC tag and GPI anchor signal
T7 sequence: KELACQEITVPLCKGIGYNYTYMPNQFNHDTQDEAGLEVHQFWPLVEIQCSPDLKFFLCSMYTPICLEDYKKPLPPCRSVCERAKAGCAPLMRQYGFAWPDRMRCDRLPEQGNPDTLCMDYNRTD


Columns and labels:
[1] = target: T1, FZD3 cysteine-rich domain (CRD), …; assay: immunofluorescence, CHO-CRD cells
[2] = target: T2, FZD4 cysteine-rich domain (CRD), …; assay: immunofluorescence, CHO-CRD cells
[3] = target: T3, FZD9 cysteine-rich domain (CRD), …; assay: immunofluorescence, CHO-CRD cells
[4] = target: T4, FZD6 cysteine-rich domain (CRD), …; assay: immunofluorescence, CHO-CRD cells
[5] = target: T5, FZD10 cysteine-rich domain (CRD), …; assay: immunofluorescence, CHO-CRD cells
[6] = target: T1, FZD3 cysteine-rich domain (CRD), …; assay: flow cytometry, CHO-CRD cells;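 note: flow cytometry of Fab binding to CHO cells overexpressing a Frizzled CRD, with binding defined as median fluorescence over twice that of CHO cells lacking any Frizzled CRD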
Protocol: (§1) Binding was measured via flow cytometry analysis of CHO cells overexpressing CRD of FZD1, FZD2, FZD3, FZD4, FZD5, FZD6, FZD7, FZD8, FZD9 or FZD10. Median fluorescence values are shown.

[7] = target: T6, FZD5 cysteine-rich domain (CRD), …; assay: flow cytometry, CHO-CRD cells;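 note: flow cytometry of Fab binding to CHO cells overexpressing a Frizzled CRD, with binding defined as median fluorescence over twice that of CHO cells lacking any Frizzled CRD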
Protocol: as §1

[8] = target: T2, FZD4 cysteine-rich domain (CRD), …; assay: flow cytometry, CHO-CRD cells;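 note: flow cytometry of Fab binding to CHO cells overexpressing a Frizzled CRD, with binding defined as median fluorescence over twice that of CHO cells lacking any Frizzled CRD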
Protocol: as §1

[9] = target: T3, FZD9 cysteine-rich domain (CRD), …; assay: flow cytometry, CHO-CRD cells;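 note: flow cytometry of Fab binding to CHO cells overexpressing a Frizzled CRD, with binding defined as median fluorescence over twice that of CHO cells lacking any Frizzled CRD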
Protocol: as §1

[10] = target: T4, FZD6 cysteine-rich domain (CRD), …; assay: flow cytometry, CHO-CRD cells
Protocol: as §1

[11] = target: T5, FZD10 cysteine-rich domain (CRD), …; assay: flow cytometry, CHO-CRD cells
Protocol: as §1

[12] = target: T7, FZD8 cysteine-rich domain (CRD), …; assay: flow cytometry, CHO-CRD cells
Protocol: as §1

[13] = target: FZD1 cysteine-rich domain (CRD), MYC-tagged and GPI-anchored on CHO cells (human); assay: flow cytometry, CHO-CRD cells
Protocol: as §1

[14] = target: FZD7 cysteine-rich domain (CRD), MYC-tagged and GPI-anchored on CHO cells (human, UniProt O75084 45-169); assay: flow cytometry, CHO-CRD cells
Protocol: as §1

binding result [1] | binding result [2] | binding result [3] | binding result [4] | binding result [5] | median fluorescence [6] | median fluorescence [7] | median fluorescence [8] | median fluorescence [9] | median fluorescence [10] | median fluorescence [11] | median fluorescence [12] | median fluorescence [13] | median fluorescence [14] | Binder
no binding | no binding | no binding | no binding | no binding | 4.1 | 24.8 | 4.57 | 3.25 | 3.22 | 3.31 |  |  |  | Fab-2905 (Fab, V domains shown, Fab; also called Fv-2905) VH: EVQLVESGGGLVQPGGSLRLSCAASGFNLSYYYMHWVRQAPGKGLEWVASIYSSYSYTSYADSVKGRFTISADTSKNTAYLQMNSLRAEDTAVYYCARSGYALDYWGQGTLVTVSS VL: DIQMTQSPSSLSASVGDRVTITCRASQSVSSAVAWYQQKPGKAPKLLIYSASSLYSGVPSRFSGSRSGTDFTLTISSLQPEDFATYYCQQSSWYYGYPFTFGQGTKVEIK
no binding | no binding | no binding | no binding | no binding | 3.49 | 28.1 | 3.65 | 2.76 | 2.89 | 2.59 |  |  |  | Fab-2931 (Fab, V domains shown, Fab; also called Fv-2931) VH: EVQLVESGGGLVQPGGSLRLSCAASGFNLSYSSMHWVRQAPGKGLEWVAYISPYSGSTYYADSVKGRFTISADTSKNTAYLQMNSLRAEDTAVYYCARGSYWYVGGGWWVSGHGGMDYWGQGTLVTVSS VL: DIQMTQSPSSLSASVGDRVTITCRASQSVSSAVAWYQQKPGKAPKLLIYSASSLYSGVPSRFSGSRSGTDFTLTISSLQPEDFATYYCQQSSYSLITFGQGTKVEIK
no binding | no binding | no binding | no binding | no binding | 4.26 | 38.2 | 5.62 | 3.01 | 3.37 | 3.25 | 23.3 |  |  | Fab-2900 (Fab, V domains shown, Fab; also called Fv-2900) VH: EVQLVESGGGLVQPGGSLRLSCAASGFNLSSYYIHWVRQAPGKGLEWVASISSSSSSTSYADSVKGRFTISADTSKNTAYLQMNSLRAEDTAVYYCARGALDYWGQGTLVTVSS VL: DIQMTQSPSSLSASVGDRVTITCRASQSVSSAVAWYQQKPGKAPKLLIYSASSLYSGVPSRFSGSRSGTDFTLTISSLQPEDFATYYCQQWYSGSSLFTFGQGTKVEIK
no binding | no binding | no binding | no binding | no binding | 4.18 | 34.9 | 5.52 | 3.11 | 3.52 | 3.05 | 13.7 | 8.66 | 8.58 | Fab-2903 (Fab, V domains shown, Fab; also called Fv-2903) VH: EVQLVESGGGLVQPGGSLRLSCAASGFNLSYYYIHWVRQAPGKGLEWVASIYPYSSYTSYADSVKGRFTISADTSKNTAYLQMNSLRAEDTAVYYCARGAIDYWGQGTLVTVSS V domain: DIQMTQSPSSLSASVGDRVTITCRASQSVSSAVAWYQQKPGKAPKLLIYSASSLYSGVPSRFSGSRSGTDFTLTISSLQPEDFATYYCQQWGGGSSLFTFG
